Consider 17 sequences from a protein production outcome set (Wang et al. 2014).

The nature of the series: label from the status in PepcDB records.
On to “MYKKNLMKLLPAVAVIIAIAAAGFQQDSEVKSTKTVQAAENELIKSDELTSLLTTAYFNDGGMKDTDEADSSILKTKKSKSKIKKAGITTGKTKALPEKSAAASGQGQGTTTTPTTSVPKGGYKDGIYQGSGTGFGGTITVQVTISGGKIASIEILSAAGETGSYFASAKGVISKMISGQTPNVDAVSGATYSSNGIIQAVQNALSKAGKGKAAKTTKKTTKKNTNTSNKTTIPVEITKPSGEVTYKDGMYTAEAEGFDGPIKVTVTIKDGKITAITNTNTDTKEYFNKAWNSIQPKILEKQAVYGVDTVIGATFSSNGILKAVQKALEQASVNVTPAPEVTVSPTPVPTTAPAPVIPDTPKVLYNDGTYTGTGIGYGGKINISVTIKDGIITEVSQTNEGETPRYFRNAWNVIQPAIIAKQSTDGIDTVSGATYSSEGILYGAKSALEQALKTSDITATPTPNPTATPEPTAAPEPTAAPEPTAAPEPTAAPEPTATPEPTATPEPTATPEPTTAPGAGYKDGSYTGTGEGFNGQVTVTINVSGGNIVSAGYDGEDDEPEFSNAWNGIYNQIMGKQSADGIDTVTDATYSSNGLIQAFQSAISQAK”, for which the protein production result was “failed”. Regarding “MHMALIHSILMGAVAGMRSMTPLAAVANAARTGKLPADNGAPALLANPLASAGMLALAGGELAGDKMKTAPDRIVLPGMIARIATGVIVGTALAPREQRGIAALLGATTAVAAAYLTFNARMRAIERYGQTSTGVVEDAISVGAATLIVRDAAKR”, the protein production result is on record as “failed”. In the case of “MEQRLLNANERSTYGKNAAVKMRKAGRIPAVMYDRHGKSVPIDVDEREFMKLFKLVTESTIVTLNAAGKDYEVFIKDFQHDIVSDKIKHIDFYEVERGKTLRTKVKIRLEGSPEGVRHGGILETGITELELECLPKDLPARIIVDVSALDVNQSLHVRDIKLPEAVTVLTSDDITVAAIKFAAAESTTPAATEGEETEAAAAAPEPAAEDK”, the protein production result is “failed”. The entry for “MIYQPDENRYHTMEYRRCGRSGVKLPAISLGLWHNFGDTTRVENSRALLQRAFDLGITHFDLANNYGPPPGSAECNFGRILQEDFLPWRDELIISTKAGYTMWDGPYGDWGSRKYLIASLDQSLKRMGLEYVDIFYHHRPDPETPLKETMKALDHLVRHGKALYVGISNYPADLARQAIDILEDLGTPCLIHQPKYSLFERWVEDGLLALLQEKGVGSIAFSPLAGGQLTDRYLNGIPEDSRAASGSRFLKPEQITADKLEKVRRLNELAARRGQKLSQMALAWVLRNDNVTSVLIGASKPSQIEDAVGMLANRRFSAAECAEIDAILEGRF” is “failed”; for “MGHHHHHHSHMQFFLPDATATHQFGVLLGQRLLASSTLLLEGDLGSGKTTLTQGIAQGLGIPDVVASPTFTLVCEYSEGRLPLYHFDLYRLEAPDVARLLPELYWEGVEFEPGLVVIEWPERLPYRPAAYWSLVLTPSLELEGRQLVLTPVNQDPTTVANLEVQLAAQFRARPATAES” it is “not failed”; for “MPQHDKSRLVRIDTGPMINPVAGKPSRPIAGDASFRTVTAFEGGQGKVESGVWESTSGSFQSNTTGYIEYCHIIEGEARLVDPDGTVHAVKAGDAFIMPEGYTGRWEVDRHVKKIYFVTHLA” it is “not failed”. The entry for “MEKIGETMAKLGQNTRVNSDQLIQTILADPEVASFISQHHLSQEQINLSLSKFNQFLVERQKYQLKDPSYIAKGYQPILAMNEGYADVSYLETKELVEAQKQAAISERIQLVSLPKSYRHIHLSDIDVNNASRMEAFSAILDFVEQYPSAEQKGLYLYGDMGIGKSYLLAAMAHELSEKKGVSTTLLHFPSFAIDVKNAISNGSVKEEIDAVKNVPVLILDDIGAEQATSWVRDEVLQVILQYRMLEELPTFFTSNYSFADLERKWATIKGSDETWQAKRVMERVRYLAREFHLEGANRRLEHHHHHH” is “not failed”; for “MKRKISSIIVVGIMLFQSLTMYPFITEAKENEQKEEINKPSKITKGLTNSLKYTKTILETGDTYDSVFPDSALAKVVAKEATGSENTTQLVTQADLNKIKSLNGYNKGISVLTGIDLLVNVTSISLNNNQVTDISPIDQLPNLVSLSVKNNQISSLILNAQNQLPKLTTIDIENNPDLNTIDIQDQPQLVDVKTSGYTGLRKLTTVIAKNNPELVNLGQYTIRNVYFSQVASLTKVELVNLPKVRKVNLERNSINELKVTDLAIEDLPLEENELTDTVFDNIQNLPNLKTLDLSKNQLEEVVLDKTDVENLPNLMTLDIQQNLAIKLINVQDQPQLVDVKTSDYKELSALTTVIAKNNPELVNLGQYTIRNVYFSQVASLTKVELVNLPKVRKVNLERNSINELKVTDLAIEDLPLEENELTDTVFDNIQNLPNLKTLDLSKNQLEEVVLDKTDVENLPNLMTLDIQQNLAIKLINVQDQPQLVDVKTSDYKELSALTTVIAKNNPELVNLGYPIMQNVYFSQVASLTKVELANLPKVRAVRLERNSINQIELNNLVSVKDVNLNTNKITNDSIEKFRGMPILATLNLNKNQITNINMLDGFPQMTTLNIDLNSISVLPSNLKTKMPKLSRISALNQTVTLGKAIVVDDSDLIINNEISNFEKLTEPSPISNFGTYANEKITWSSERIKNLTEVSFQFSELINVTGIDGTFSGKVTQPFKRSTTPVINADSEIHYPQGTEKTEAEFLKDVQAQTTDDLAIKSDFETMVNLKKVGKYTVTLNVENLDGIKATPKEVIVYIDAVQGANITVKYEDESGNKLAENSILTGNVGEEYSSSAKEILGYTLTEMPSNAQGEFSLEEQTVTYIYSKNPVPAKDITVQYTDEDGMELAPTETLSGNVDENYVTTAKTFTGYELIETPSNAEGKFSENAQTVTYVYRAIKAEPILAKEVTVNYQDELGAKISETEVLTGEIGETYTTVAKTIDGYTLIKSPTNANGIFNENPQTVTYVYQLQNSPIAANITVKHLDENNNELAPSEVLSGNVDEAYTTKPKEIKDYSLVKVPTNASGKFTTEAQTVIYHYKKNSIPTSSYITVKYVDETGKELAISKVLNGNINDSYATTAKEIKGYTLVQKPANATGKFTDQNQTIKYVYRANKAEVNPNPNSDVLGSNSNGDIQPTNDIKPTNDVQPTNEAPQTLPKTGSQPANLIFGLGILLVLLSTQWLHRNKRKKAKSHNC” it is “failed”. As for “RPQNTNSWQKDSIEGIDIMLAMDVSGSMQAMDFKPNRLEAAKDVAISFINNRPNDNIGMVTFAGESFTQCPLTTDHTVLLNMVQDLQMGVLDDGTAIGMGLATAVNRLKDSKAKSRVVILLTDGSNNMGDITPRMAADIARTFGIRVYTVGVGTRGEAPFPIQTEFGVRIQNVPVDIDEPTLDGIAEVSGGKYFRAVDNETLNEIYKEIDKLEKTRLMT”, the entry is “failed”; as for “MIKLSSITAHILDIWHRRNSRSYIAHLRSLGIRIGDGCIFRDPLTTRIDVSRPALVSIGSNVDMNTYFQILTHDWASFVFRNKYHDFVNSSGRVEIGSNIYIGTNVIVLRGVTIGDNCVIGAGSVVTHDIPANSVAVGAPCRVVCSLDEYYQKRKVKGLQEAVEHVKAFQKNFGRDPLPHELYEEFIYFVDASNVEEYERQGVPVRSQLSIAYGDWLSTHKAKFSSYDDFIQYVNQKMNETAES”, “failed”; as for “MKNQLELIAESYDKGIDYGRRGISLYDDLPEYITNNPDYIIYKKTTESIEPSVYSGYKEIREYLSPTTNMKFIDLGCCLNLMFNGYDQWASTYHGVDISSKTIELLNEFSTNNKLHIGALICGSIHETPFDANYFDIGACIGVLEYYKKDFVEKALIEAHRIIKPGGKLVLDIPNIVSPACRGMILLEEHAGRTDQFDMLPLDFENMLCNYFEIEKVEKANAWAMFQYFLSCKK”, “failed”. For the sequence “MAAEPLTELEESIETVVTTFFTFARQEGRKDSLSVNEFKELVTQQLPHLLKDVGSLDEKMKSLDVNQDSELKFNEYWRLIGELAKEIRKKKDLKIRKK”, the protein production entry is on record as “not failed”. The entry for “PISRLAQIQQARKEKEPDYILLSERGMPRRREFVMQVKVGNEVATGTGPNKKIAKKNAAEAMLLQLGYKASTSLQD” is “not failed”. As for “MLTDPFFYLVAIPAVILLGLTKGGFAGIGVVAVPMMTLAVSPVMAASIILPILLVQDVVSVWSFRKTWDKAILVLMLPAAAVGIFLGWALAALVEEAAVELAVGAISVVFALQRLWAEHALRAADSIEAGPARPWLGVLCGATAGFTSQIAHAGGPPFQIYVLPRGLPRDVFIGTSAIFFGVVNWMKVPAYLALGQLTPQALATAGVLLPLAIASTWAGVWLVRRVPAEGFYKVIYVLLVLVGGKLMFDGARGLLT”, the entry is “failed”.

As for “MPRSTWFKALLLLVALWAPLSQAETGWQPIQETIRKSDKDNRQYQAIRLDNGMVVLLVSDPQAVKSLSALVVPVGSLEDPEAYQGLAHYLEHMSLMGSKKYPQADSLAEYLKMHGGSHNASXAPYRTAFYLEVENDALPGAVDRLADAIAEPLLDKKYAERERNAVNAELTMARTRDGMRMAQVSAETINPAHPGSKFSGGNLETLSDKPGNPVQQALKDFHEKYYSANLMKAVIYSNKPLPELAKMAADTFGRVPNKESKKPEITVPVVTDAQKGIIIHYVPALPRKVLRVEFRIDNNSAKFRSKTDELITYLIGNRSPGTLSDWLQKQGLVEGISANSDPIVNGNSGVLAISASLTDKGLANRDQVVAAIFSYLNLLREKGIDKQYFDELANVLDIDFRYPSITRDMDYVEWLADTMIRVPVEHTLDAVNIADRYDAKAVKERLAMMTPQNARIWYISPKEPHNKTAYFVDAPYQVDKISEQTFADWQQKAANIALSLPELNPYIPDDFSLIKSEKKYDHPELIVDESNLRVVYAPSRYFSSEPKADVSLILRNPKAMDSARNQVMFALNDYLAGLALDQLSNQASVGGISFSTNANNGLMVNANGYTQRLPQLFQALLEGYFSYTATEDQLEQAKSWYNQMMDSAEKGKAFEQAIMPAQMLSQVPYFSRDERRKILPSITLKEVLAYRDALKSGARPEFMVIGNMTEAQATTLARDVQKQLGADGSEWCRNKDVVVDKKQSVIFEKAGNSTDSALAAVFVPTGYDEYTSSAYSSLLGQIVQPWFYNQLRTEEQLGYAVFAFPMSVGRQWGMGFLLQSNDKQPSFLWERYKAFFPTAEAKLRAMKPDEFAQIQQAVITQMLQAPQTLGEEALKLSKDFDRGNMRFDSRDKIVAQIKLLTPQKLADFFHQAVVEPQGMAILSQISGSQNGKAEYVHPEGWKVWENVSALQQTMPLMSEKNE”, the protein production result is on record as “failed”. As for “MILATYFDGRTSRAQPVRLAVEQGEAVLFDPEGVPVRRAPLSALRVSERVKHAPRLVTFEDGAFCEIADPAEQQALNALLHRTGYREGAVVRAQNSWRLALGALALTLAALVLGYRYGLPWGAKVLAGMVPQRVEAQLGHASLAAFDQHWLEPSKLPQAQQARIRARFAALRAPDATHAYTIAFRDAGKLGANAFALPGGDIIVTDALVRLVGEGDGLMGVLAHEAGHVEYRHGLRQLIQSSAIGATAALLFGDISTILAGVPATMLTLRYSRDYERDADRYASRMLQSNGLSVAAFADVLQALEDSHGGARGTGSGAGRKEEDRDDASGFFSSHPLTRERIETLRRFDHTHGGSDAD”, the entry is “failed”. The entry for “MARVTVMIPTQRRPDGLAVAARSVFGQVGVDFAELELVIVDNDQVPSAKPVADALRKGAPCPVIYVNEKRPGVAFARNAGMARASGDFIAFLDDDEEAPSGWLAALLAAQERYDADVVFGPVKARAPAHIDQHRDYLERFFSRIGPAQAGVIDYHYGCGDSLIRRSALPDPVAPFAVERNFIGGEDDLLFGHMGAAGKRFAWEPAAWVWEDPVPSRLNLGYTIQRAFAYGQGPSAHCAAAEPRDNLGVARWMLIGVGQAAVFGLVAAVKWAVRAKDRAEWLDRAARGLGKTFWWGPFKIQFYGRTA” is “failed”.
